Experimental data from US20230203170A1 (DRAGONBOAT BIOPHARMACEUTICAL SHANGHAI, published 2023).
Changes are numbered by the printed parent chain. In names and notes the source's numbering stands.

T1: full-length mouse CSF-1R (RefSeq ID NP_001032948) expressed on HEK293F cells (mouse, UniProt P09581 20-977)
T1 construct: whole, on cells
T1 sequence (looked up): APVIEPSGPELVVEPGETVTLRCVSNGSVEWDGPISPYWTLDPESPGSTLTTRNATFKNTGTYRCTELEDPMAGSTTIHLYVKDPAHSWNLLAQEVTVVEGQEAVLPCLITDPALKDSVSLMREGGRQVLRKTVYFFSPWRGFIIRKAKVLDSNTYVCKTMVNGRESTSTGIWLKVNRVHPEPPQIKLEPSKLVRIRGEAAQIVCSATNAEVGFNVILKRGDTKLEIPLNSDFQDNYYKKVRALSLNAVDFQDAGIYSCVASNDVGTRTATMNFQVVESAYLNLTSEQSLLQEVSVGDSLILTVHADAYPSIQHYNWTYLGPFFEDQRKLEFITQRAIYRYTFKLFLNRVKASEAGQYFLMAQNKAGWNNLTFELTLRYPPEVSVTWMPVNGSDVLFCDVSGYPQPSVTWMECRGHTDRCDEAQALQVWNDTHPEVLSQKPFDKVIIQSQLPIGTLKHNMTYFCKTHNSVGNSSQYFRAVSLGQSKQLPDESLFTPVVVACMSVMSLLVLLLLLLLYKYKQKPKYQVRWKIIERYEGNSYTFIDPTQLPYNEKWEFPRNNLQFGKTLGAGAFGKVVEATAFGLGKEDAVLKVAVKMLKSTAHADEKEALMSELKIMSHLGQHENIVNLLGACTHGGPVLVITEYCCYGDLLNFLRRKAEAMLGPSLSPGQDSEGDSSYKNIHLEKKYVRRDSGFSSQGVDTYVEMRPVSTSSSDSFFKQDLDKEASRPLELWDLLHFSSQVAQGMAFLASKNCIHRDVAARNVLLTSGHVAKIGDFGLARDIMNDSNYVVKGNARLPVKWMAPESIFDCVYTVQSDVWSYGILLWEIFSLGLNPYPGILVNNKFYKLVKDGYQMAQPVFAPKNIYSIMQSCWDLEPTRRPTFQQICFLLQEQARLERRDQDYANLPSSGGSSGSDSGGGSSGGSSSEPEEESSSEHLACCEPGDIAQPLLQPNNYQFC

B1: TY21371 (antibody, V domains shown)
VH: EVQLVESGGGLVQPGGSLRLSCAASGFTFSGYAIHWVRQAPGKGLEWVSVISGYGSSTYYADSVKGRFTISRDNSKNTLYLQLNSLRAEDTAVYYCARDPGVGGFDVWGQGTLVTVSS
VL: DIQLTQSPSSLSASVGDRVTITCRASQSVRRRFLAWYQQKPGKAPKLLIYDASSLESGVPSRFSGSGSGTDFTLTISSLQPEDFATYYCQQYYPIPRTFGQGTKVEIK
notes: Human IgG4 isotype with S241P mutation (Uniprot P01861); Its IgG1 format is called TY22179 (used only in PK/PD)
B2: TY21372 (antibody, human IgG4, V domains shown)
VH: B1 VH with F27Y, G31D, S57T, D99A, P100S, G101S, V102Y, V107Y
VL: DIQLTQSPSSLSASVGDRVTITCRASQDVSTAVAWYQQKPGKAPKLLIYDASNRATGIPSRFSGSGSGTDFTLTISSLQPEDFATYYCQQYYPWPWTFGQGTKVEIK
notes: Human IgG4 isotype with S241P mutation
B3: TY21373 (antibody, human IgG4, V domains shown)
VH: EVQLVESGGGLVQPGGSLRLSCAASGYSISSGYYWGWIRQAPGKGLEWVSSISGYGSSTYYADSVKGRFTISRDNSKNTLYLQLNSLRAEDTAVYYCARGAYGYFDYWGQGTLVTVSS
VL: DIQLTQSPSSLSASVGDRVTITCPASSSVSYIHWYQQKPGKAPKLLIYDASNLETGVPSRFSGSGSGTDFTLTISSLQPEDFATYYCQQYYPWPWTFGQGTKVEIK
notes: as for B2
B4: TY21375 (antibody, human IgG4, V domains shown)
VH: EVQLVESGGGLVQPGGSLRLSCAASGFTFSDYAIHWVRQAPGKGLEWVSVISGYGGSTYYADSVKGRFTISRDNSKNTLYLQLNSLRAEDTAVYYCARSGGGGYYFDYWGQGTLVTVSS
VL: DIQLTQSPSSLSASVGDRVTITCRASQGIRSYLAWYQQKPGKAPKLLIYAASSLQSGVPSRFSGSGSGTDFTLTISSLQPEDFATYYCQQSYHWPLTFGQGTKVEIK
notes: as for B2
B5: TY21428 (antibody, human IgG4, V domains shown)
VH: B4 VH with D31N, A33G, S99R, G101L, G102T, G103S, Y104T
VL: DIQLTQSPSSLSASVGDRVTITCRASQSVGSWLAWYQQKPGKAPKLLIYDASNLETGVPSRFSGSGSGTDFTLTISSLQPEDFATYYCQQSYPIPPTFGQGTKVEIK
notes: as for B2
B6: TY21429 (antibody, human IgG4, V domains shown)
VH: EVQLVESGGGLVQPGGSLRLSCAASGYTFSNYAIHWVRQAPGKGLEWVSAISGTGSSTYYADSVKGRFTISRDNSKNTLYLQLNSLRAEDTAVYYCARHSHSRYAFDYWGQGTLVTVSS
VL: B3 VL with P24R, S27H, S28V, V29R, S30T, Y31A, I32V, H33A
notes: as for B2
B7: TAC2205 (antibody, human IgG4, V domains shown)
VH: QVQLVQSGAEVKKPGSSVKVSCKASGYTFTDNYMIWVRQAPGQGLEWMGDINPYNGGTTFNQKFKGRVTITADKSTSTAYMELSSLRSEDTAVYYCARESPYFSNLYVMDYWGQGTLVTVSS
VL: EIVLTQSPATLSLSPGERATLSCKASQSVDYDGDNYMNWYQQKPGQAPRLLIYAASNLESGIPARFSGSGSGTDFTLTISSLEPEDFAVYYCHLSNEDLSTFGGGTKVEIK
B8: TY21433 (antibody, human IgG4, V domains shown)
VH: B1 VH with G31N, S57T, D99S, P100T, G101V, V102A, G103T, G104P, D106A, V107Y
VL: B2 VL with R24K, S30R, D50A, N53T, R54L, A55Q, T56S, I58V, Y91S
notes: as for B2
B9: TAC2188 (antibody, human IgG4, V domains shown)
VH: QVQLVQSGAEVKKPGASVKVSCKASGYTFTSYDISWVRQAPGQGLEWMGVIWTDGGTNYAQKLQGRVTMTTDTSTSTAYMELRSLRSDDTAVYYCARDQRLYFDVWGQGTTVTVSS
VL: DIQMTQSPSSLSASVGDRVTITCRASEDVNTYVSWYQQKPGKAPKLLIYAASNRYTGVPSRFSGSGSGTDFTLTISSLQPEDFATYYCQQSFSYPTFGQGTKLEIK

biological target: T2, full-length human CSF-1R expressed on cells (human, UniProt P07333 20-972); assay: flow cytometry on HEK293F cells transiently expressing full-length human CSF-1R (IRES-EGFP vector), IgG at 100 nM, Alexa Fluor 647 anti-human Fc detection
T2 construct: whole, on cells
Method: (§1) The specificities of the antibodies were also assessed against human, monkey and mouse CSF-1R that are transiently expressed on the surface of HEK293F cells (FIG. 1). Briefly, HEK293F cells were transfected with a plasmid expressing full-length human, monkey (RefSeq ID XP_015307616) or mouse (RefSeq ID NP_001032948) CSF-1R from a bicistronic IRES vector. EGFP was used to identify the transfected cells. After 40 hrs, the transfected cells were harvested and then washed once with 1% PBSA buffer (1% (w/v) BSA in 1×PBS). Cells were then incubated with various IgGs (each at 100 nM) for 1 hr at room temperature, washed once with pre-chilled 1% PBSA buffer, and incubated with Alexa Fluor® 647 conjugated mouse anti-human Fc antibodies for 30 min on ice. The cells were washed once prior to analysis by flow cytometry (Beckman® CytoFlex).

Q: For B1, which “percent of cells in the upper right quadrant (APC Ab binding positive, FITC Ag display positive)” value is on record?
A: 40.2%

Q: B2 was tested. Which “percent of cells in the upper right quadrant (APC Ab binding positive, FITC Ag display positive)” value did it give?
A: 37.4%

Q: For B3, which “percent of cells in the upper right quadrant (APC Ab binding positive, FITC Ag display positive)” value is on record?
A: 37.4%

Q: For B4, which “percent of cells in the upper right quadrant (APC Ab binding positive, FITC Ag display positive)” value is on record?
A: 43.8%

biological target: T1, full-length mouse CSF-1R (RefSeq ID …); assay: flow cytometry on HEK293F cells transiently expressing full-length mouse CSF-1R (IRES-EGFP vector), IgG at 100 nM, Alexa Fluor 647 anti-human Fc detection
Method: as §1

Q: How did the “percent of cells in the upper right quadrant (APC Ab binding positive, FITC Ag display positive)” value turn out when B1 was run?
A: 3.71%

Q: B3 was tested. Which “percent of cells in the upper right quadrant (APC Ab binding positive, FITC Ag display positive)” value did it give?
A: 0.77%

Q: B4 was tested. Which “percent of cells in the upper right quadrant (APC Ab binding positive, FITC Ag display positive)” value did it give?
A: 0.081%

biological target: T3, full-length monkey CSF-1R (RefSeq ID XP_015307616) expressed on HEK293F cells (monkey, UniProt A0A2K5WG90 20-976); assay: flow cytometry on HEK293F cells transiently expressing full-length monkey CSF-1R (IRES-EGFP vector), IgG at 100 nM, Alexa Fluor 647 anti-human Fc detection
Method: as §1

T3 sequence (A0A2K5WG90 entry or part of it limits assumed, form in doubt): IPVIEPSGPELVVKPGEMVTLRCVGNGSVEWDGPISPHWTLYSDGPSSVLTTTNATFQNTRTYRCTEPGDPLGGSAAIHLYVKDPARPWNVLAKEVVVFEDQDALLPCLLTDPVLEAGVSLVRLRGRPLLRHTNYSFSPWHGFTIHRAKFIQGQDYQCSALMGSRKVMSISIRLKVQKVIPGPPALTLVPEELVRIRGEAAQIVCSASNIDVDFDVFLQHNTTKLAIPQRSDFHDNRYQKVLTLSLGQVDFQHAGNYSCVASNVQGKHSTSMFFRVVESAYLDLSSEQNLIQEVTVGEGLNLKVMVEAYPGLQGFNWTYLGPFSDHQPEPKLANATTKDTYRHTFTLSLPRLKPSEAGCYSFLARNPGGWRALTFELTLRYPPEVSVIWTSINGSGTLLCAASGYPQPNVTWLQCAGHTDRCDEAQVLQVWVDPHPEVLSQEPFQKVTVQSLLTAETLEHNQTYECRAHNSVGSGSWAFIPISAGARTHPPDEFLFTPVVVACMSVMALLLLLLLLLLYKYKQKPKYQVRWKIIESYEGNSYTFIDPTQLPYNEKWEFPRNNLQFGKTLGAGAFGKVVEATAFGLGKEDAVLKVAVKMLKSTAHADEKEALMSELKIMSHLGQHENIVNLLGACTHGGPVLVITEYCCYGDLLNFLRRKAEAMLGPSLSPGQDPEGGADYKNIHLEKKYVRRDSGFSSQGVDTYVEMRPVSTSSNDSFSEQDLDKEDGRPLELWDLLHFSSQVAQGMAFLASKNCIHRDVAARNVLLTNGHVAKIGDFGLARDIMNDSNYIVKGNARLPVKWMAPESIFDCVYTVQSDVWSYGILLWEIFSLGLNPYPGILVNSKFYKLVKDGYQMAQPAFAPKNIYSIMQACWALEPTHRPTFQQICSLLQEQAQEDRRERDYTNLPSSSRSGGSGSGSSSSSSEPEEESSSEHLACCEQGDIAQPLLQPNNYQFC

Q: Which “percent of cells in the upper right quadrant (APC Ab binding positive, FITC Ag display positive)” value does the source give for B1 here?
A: 29.5%

Q: With B2 as the binder, how does the “percent of cells in the upper right quadrant (APC Ab binding positive, FITC Ag display positive)” value read?
A: 33.7%

Q: Which “percent of cells in the upper right quadrant (APC Ab binding positive, FITC Ag display positive)” value does the source give for B4 here?
A: 32.6%

biological target: T3, full-length monkey CSF-1R (RefSeq ID …); assay: flow cytometry on HEK293F cells transiently expressing full-length monkey CSF-1R (IRES-EGFP vector), IgG at 100 nM, Alexa Fluor 647 anti-human Fc detection [Conti.]
Method: as §1

Q: B5 was tested. Which “percent of cells in the upper right quadrant (APC Ab binding positive, FITC Ag display positive)” value did it give?
A: 31.3%

Q: For B6, which “percent of cells in the upper right quadrant (APC Ab binding positive, FITC Ag display positive)” value is on record?
A: 34.2%

biological target: T1, full-length mouse CSF-1R (RefSeq ID …); assay: flow cytometry on HEK293F cells transiently expressing full-length mouse CSF-1R (IRES-EGFP vector), Alexa Fluor 647 anti-human Fc detection
Method: as §1

Q: Does B1 bind?
A: no binding (tested: 100 nM)

Q: Does B2 bind?
A: no binding (tested: 100 nM)

Q: Does B3 bind?
A: no binding (tested: 100 nM)

Q: Does B4 bind?
A: no binding (tested: 100 nM)

biological target: T2, full-length human CSF-1R expressed on …; assay: flow cytometry on HEK293F cells transiently expressing full-length human CSF-1R (IRES-EGFP vector), IgG at 100 nM, Alexa Fluor 647 anti-human Fc detection [Conti.]
Method: as §1

Q: With B5 as the binder, how does the “percent of cells in the upper right quadrant (APC Ab binding positive, FITC Ag display positive)” value read?
A: 41.3%

biological target: T4, human CSF1R-His (Acrobiosystem, CSR-H5228) (human, UniProt P07333 20-512, limits assumed); assay: SPR Biacore T200; IgG captured by anti-human Fc, CSF1R-His as analyte, 1:1 fit
T4 construct: Bought protein; The catalogue number is printed only for the SPR assay; also called human CSF-1R protein; not shown: His tag
Excerpt: The specific binding affinity and kinetics of antibodies against human CSF-1R protein were examined by surface plasmon resonance (SPR) analysis using a Biacore™ T200 instrument (GE, USA) according to the manufacturer’s guidelines. Anti-Human IgG (Fc) antibody (Sigma, I2136) was immobilized on CM5 chips according to the instructions of Amine Coupling kit (GE Biacore #BR-1000-50). The immobilized Anti-Human IgG (Fc) antibody was used to capture the antibodies. […] The running buffer used was 0.01 M HEPES, 0.15 M NaCl, 3 mM EDTA, 0.05% (v/v) surfactant P20, pH 7.4. Corresponding controls were conducted in each case using a blank flow cell with no protein captured for “background” subtraction. The association and dissociation curves were fitted to a 1:1 Langmuir binding model using Biacore T200 Evaluation Software (GE, USA) according to the manufacturer’s guidelines.

Q: With B1 as the binder, how does the Kd read?
A: 0.6 nM

Q: How did the Kd turn out when B2 was run?
A: 1.61 nM

Q: With B3 as the binder, how does the Kd read?
A: 23.6 nM

Q: Which Kd does the source give for B4 here?
A: 35.5 nM

Q: Which Kd does the source give for B5 here?
A: 9.86 nM

Q: How did the Kd turn out when B6 was run?
A: 3.18 nM

Q: Which Kd does the source give for B7 here?
A: 0.67 nM

Q: With B8 as the binder, how does the Kd read?
A: 3.51 nM

biological target: T1, full-length mouse CSF-1R (RefSeq ID …); assay: flow cytometry on HEK293F cells transiently expressing full-length mouse CSF-1R (IRES-EGFP vector), Alexa Fluor 647 anti-human Fc detection [Conti.]
Method: as §1

Q: Does B5 bind?
A: no binding (tested: 100 nM)

Q: Does B6 bind?
A: no binding (tested: 100 nM)

Q: Does B9 bind?
A: no binding (tested: 100 nM)

Q: Does B7 bind?
A: no binding (tested: 100 nM)

Q: Does B8 bind?
A: no binding (tested: 100 nM)
